Assay results taken from FireProtDB (doi:10.1038/s41589-020-0556-3).
Values joined by “and” are separate entries in the source; they are usually repeats but may differ in a detail not shown here. Equal entries are not always repeated.

B1: Barstar, P11540 (parent)
chain: MKKAVINGEQIRSISDLHQTLKKELALPEYYGENLDALWDCLTGWVEYPLVLEWRQFEQSKQLTENGAESVLQVFREAKAEGCDITIILS

Variants of: B1
Conditions: Bacillus amyloliquefaciens; pH 7.5; 25 °C; Urea; fluorescence; HEPES; KCL / MgOAc 150000 / 15000; transition: 2; structure 1BTA; whole UniProt chain shown

Variant	denaturant m value	denaturant midpoint (higher = more stable)	unfolding free energy
MKKAVINGEQIRSISDLHQTLKKELALPEYYGENLDALWDCLTGWVEYPLVLEWRQFEQSAQLTENGAESVLQVFREAKAEGCDITIILS [K61A]	0.96 kcal/mol/M and 0.68 kcal/mol/M	4.41 M and 2.51 M	4.25 kcal/mol
MKKAVINGEQIRSISDLHQTLKKELALPEYYGENLDALWDCLTGWVEYPLVLEWRQFEQSKQLTENGAESVLQVFREAAAEGCDITIILS [K79A]	0.89 kcal/mol/M and 0.48 kcal/mol/M	4.65 M and 4.24 M	4.16 kcal/mol
MKKAVINGEQIRSISDLHQTLKKELALPEYYGENLDALWDCLTGWVEYPLVLEWRQFEQSAQLTENGAESVLQVFREAKAAGCDITIILS [K61A E81A]	1.16 kcal/mol/M and 0.7 kcal/mol/M	6.02 M and 3.72 M	6.99 kcal/mol
MKAAVINGEQIRSISDLHQTLKKELALPEYYGENLDALWDCLTGWVEYPLVLEWRQFEQSKQLTENGAESVLQVFREAKAEGCDITIILS [K3A]	1.06 kcal/mol/M and 0.59 kcal/mol/M	4.97 M and 2.52 M	5.27 kcal/mol
